Measured values as given in the RNAGym collection of RNA variant scans (doi:10.1093/molbev/msab373).

B1: Azoarcus group I ribozyme (parent)
chain: GUGCCUUGCGCCGGGAAACCACGCAAGGGAUGGUGUCAAAUUCGGCGAAACCUAAGCGCCCGCCCGGGCGUAUGGCAACGCCGAGCCAAGCUUCGGCGCCUGCGCCGAUGAAGGUGUAGAGACUAGACGGCACCCACCUAAGGCAAACGCUAUGGUGAAGGCAUAGUCCAGGGAGUGGCGAAAGUCACACAAACCGG

Variants of: B1
Assay: reverse-splicing fitness (ratio to wild type); higher = more active; in vitro selection; Mg2+ level not given
In short: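 An in vitro group I ribozyme library with randomized positions was T7-transcribed and gel-purified. In triplicate, 10 pmol RNA in EPPS pH 7.5 was reacted with 50 pmoles of a 30-nt RNA substrate for 1 h at 37 °C across several added MgCl2 levels (1–48 mM), then stopped with EDTA. Products were reverse transcribed from a substrate-complementary primer, PCR-amplified and sequenced (HiSeq 4000). Fitness is a variant's read proportion after selection over that before, normalised to wild type.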

Compared with GUGCCUUGCGCCGGGAAACCACGCAAGGGAUGGUGUCAAAUUCGGCGAAACCUAAGCGCCCGCCCGGGCGUAUGGCAACGCUGAGCCAAGCUUCGGCGCCUGCGCCGAUGUAGGUGUAGAGACUAGACGGCACCCACCUAAGGCUAACGUUAUGGUGAAGGCAUAGUCAAGGGAGGGGCGAAAGUCACACAAACCGG [C82U A111U A145U C150U C169A U176G], GUGCCUUGCGCCGGGAAACCACGCAAGGGAUGGUGUCAAAUUCGGCGAAACCUAAGCGCCCGCCCGGGCGUAUGGCAACGCUGAGCCAAGCUUCGGCGCCUGCGCCGAUGUAGGUGUAGAGACUAGACGGCACCCACCUAAGGCAAACGAUAUGGUGAAGGCAUAGUCAAGGGAGUGGCGAAAGUCACACAAACCGG [C82U A111U C150A C169A] is higher in reverse-splicing fitness: 0.00627 for the first, 0.00982 for the second.

Going from GUGCCUUGCGCCGGGAAACCACGCAAGGGAUGGUGUCAAAUUCGGCGAAACCUAAGCGCCCGCCCGGGCGUAUGGCAACGCUGAGCCAAGCUUCGGCGCCUGCGCCGAUGUAGGUGUAGAGACUAGACGGCACCCACCUAAGGCUAACGUUAUGGUGAAGGCAUAGUCCAGGGAGGGGCGAAAGUCACACAAACCGG [C82U A111U A145U C150U U176G] to GUGCCUUGCGCCGGGAAACCACGCAAGGGAUGGUGUCAAAUUCGGCGAAACCUAAGCGCCCGCCCGGGCGUAUGGCAACGCUGAGCCAAGCUUCGGCGCCUGCGCCGAUGUAGGUGUAGAGACUAGACGGCACCCACCUAAGGCUAACGUUAUGGUGAAGGCAUAGUCCAGGGAGCGGCGAAAGUCACACAAACCGG [C82U A111U A145U C150U U176C], the reverse-splicing fitness rises from 0.0202 to 0.103.

Compared with GUGCCUUGCGCCGGGAAACCACGCAAGGGAUGGUGUCAAAUUCGGCGAAACCUAAGCGCCCGCCCGGGCGUAUGGCAACGCUGAGCCAAGCUUCGGCGCCUGCGCCGAUGUAGGUGUAGAGACUAGACGGCACCCACCUAAGGCUAACGUUAUGGUGAAGGCAUAGUCCAGGGAGAGGCGAAAGUCACACAAACCGG [C82U A111U A145U C150U U176A], GUGCCUUGCGCCGGGAAACCACGCAAGGGAUGGUGUCAAAUUCGGCGAAACCUAAGCGCCCGCCCGGGCGUAUGGCAACGCUGAGCCAAGCUUCGGCGCCUGCGCCGAUGUAGGUGUAGAGACUAGACGGCACCCACCUAAGGCAAACGAUAUGGUGAAGGCAUAGUCAAGGGAGAGGCGAAAGUCACACAAACCGG [C82U A111U C150A C169A U176A] is lower in reverse-splicing fitness: 0.0674 for the first, 0.0195 for the second.

Going from GUGCCUUGCGCCGGGAAACCACGCAAGGGAUGGUGUCAAAUUCGGCGAAACCUAAGCGCCCGCCCGGGCGUAUGGCAACGCUGAGCCAAGCUUCGGCGCCUGCGCCGAUGUAGGUGUAGAGACUAGACGGCACCCACCUAAGGCAAACGAUAUGGUGAAGGCAUAGUCCAGGGAGUGGCGAAAGUCACACAAACCGG [C82U A111U C150A] to GUGCCUUGCGCCGGGAAACCACGCAAGGGAUGGUGUCAAAUUCGGCGAAACCUAAGCGCCCGCCCGGGCGUAUGGCAACGCUGAGCCAAGCUUCGGCGCCUGCGCCGAUGUAGGUGUAGAGACUAGACGGCACCCACCUAAGGCUAACGCUAUGGUGAAGGCAUAGUCCAGGGAGCGGCGAAAGUCACACAAACCGG [C82U A111U A145U U176C], the reverse-splicing fitness rises from 0.031 to 0.154.

First: GUGCCUUGCGCCGGGAAACCACGCAAGGGAUGGUGUCAAAUUCGGCGAAACCUAAGCGCCCGCCCGGGCGUAUGGCAACGCUGAGCCAAGCUUCGGCGCCUGCGCCGAUGUAGGUGUAGAGACUAGACGGCACCCACCUAAGGCUAACGCUAUGGUGAAGGCAUAGUCCAGGGAGGGGCGAAAGUCACACAAACCGG [C82U A111U A145U U176G]
Second: GUGCCUUGCGCCGGGAAACCACGCAAGGGAUGGUGUCAAAUUCGGCGAAACCUAAGCGCCCGCCCGGGCGUAUGGCAACGCUGAGCCAAGCUUCGGCGCCUGCGCCGAUGUAGGUGUAGAGACUAGACGGCACCCACCUAAGGCUAACGCUAUGGUGAAGGCAUAGUCCAGGGAGAGGCGAAAGUCACACAAACCGG [C82U A111U A145U U176A]
The reverse-splicing fitness of the first is lower: 0.0313 for the first, 0.112 for the second.

Compared with GUGCCUUGCGCCGGGAAACCACGCAAGGGAUGGUGUCAAAUUCGGCGAAACCUAAGCGCCCGCCCGGGCGUAUGGCAACGCUGAGCCAAGCUUCGGCGCCUGCGCCGAUGUAGGUGUAGAGACUAGACGGCACCCACCUAAGGCUAACGCUAUGGUGAAGGCAUAGUCGAGGGAGUGGCGAAAGUCACACAAACCGG [C82U A111U A145U C169G], GUGCCUUGCGCCGGGAAACCACGCAAGGGAUGGUGUCAAAUUCGGCGAAACCUAAGCGCCCGCCCGGGCGUAUGGCAACGCUGAGCCAAGCUUCGGCGCCUGCGCCGAUGUAGGUGUAGAGACUAGACGGCACCCACCUAAGGCUAACGCUAUGGUGAAGGCAUAGUCAAGGGAGUGGCGAAAGUCACACAAACCGG [C82U A111U A145U C169A] is lower in reverse-splicing fitness: 0.00791 for the first, 0.00706 for the second.

First: GUGCCUUGCGCCGGGAAACCACGCAAGGGAUGGUGUCAAAUUCGGCGAAACCUAAGCGCCCGCCCGGGCGUAUGGCAACGCUGAGCCAAGCUUCGGCGCCUGCGCCGAUGUAGGUGUAGAGACUAGACGGCACCCACCUAAGGCUAACGCUAUGGUGAAGGCAUAGUCUAGGGAGUGGCGAAAGUCACACAAACCGG [C82U A111U A145U C169U]
Second: GUGCCUUGCGCCGGGAAACCACGCAAGGGAUGGUGUCAAAUUCGGCGAAACCUAAGCGCCCGCCCGGGCGUAUGGCAACGCUGAGCCAAGCUUCGGCGCCUGCGCCGAUGUAGGUGUAGAGACUAGACGGCACCCACCUAAGGCUAACGUUAUGGUGAAGGCAUAGUCGAGGGAGUGGCGAAAGUCACACAAACCGG [C82U A111U A145U C150U C169G]
The reverse-splicing fitness of the first is higher: 0.0106 for the first, 0.00898 for the second.

For GUGCCUUGCGCCGGGAAACCACGCAAGGGAUGGUGUCAAAUUCGGCGAAACCUAAGCGCCCGCCCGGGCGUAUGGCAACGCUGAGCCAAGCUUCGGCGCCUGCGCCGAUGUAGGUGUAGAGACUAGACGGCACCCACCUAAGGCUAACGUUAUGGUGAAGGCAUAGUCUAGGGAGUGGCGAAAGUCACACAAACCGG [C82U A111U A145U C150U C169U], the reverse-splicing fitness was 0.0104.
